In the DeepSol protein solubility set:

assay: soluble on expression in E. coli; label from the status in PepcDB or PDB records

**Q.** For “MGSDKIHHHHHHMEKSYWEQAHLQLPLKYTWKISRNASTEKINVIVFLCIDGRTYPGEAAPNVRYGESVELIDLQFKHFQTVWKDSLLQDEHAYNDVLDGLKLCQSLRFALESAYVHARCDKDPAFFERYTGIKMHTSPLATSYTLPIMDPGQIQEFIQTHDLTRFDTLKIKTGKEESKELIKTASRYFDKMIRVDANEAWTDPDLLIKELEELKRIPLEFIEQPFESAQKDAYKYFKKYSKIPVIADESITFAPDLKEIKELFHGVNMKLMKAGGYREGANILLKSKELGLKTMVGCMVETTLGIRSGMWISGHSDYIDLDGSFVIDNEPFKLVSENLGRLVIKQVNFFIEKWQK”, which “soluble on expression in E. coli” value is on record?
**A.** The value was “not soluble”.

**Q.** With “GKVNIIVPQYVRCPDICHYETLIMKSLMIKLFQENSLDDVVFVTVEVDPWRGSLEEADMYIKESTASLGFTPPWIWVGGNMEPLETLYKQLGLSVQLDSSTGLIVHTAGFYIVDRNGILLYYVKVEDEGWKNPGKVADVLEYVVNDALSK” as the sequence, how does the “soluble on expression in E. coli” value read?
**A.** Its value is “not soluble”.

**Q.** Which “soluble on expression in E. coli” value does the source give for “MGSDKIHHHHHHMQQGQMAYDRAITVFSPDGRLFQVEYAREAVKKGSTALGMKFANGVLLISDKKVRSRLIEQNSIEKIQLIDDYVAAVTSGLVADARVLVDFARISAQQEKVTYGSLVNIENLVKRVADQMQQYTQYGGVRPYGVSLIFAGIDQIGPRLFDCDPAGTINEYKATAIGSGKDAVVSFLEREYKENLPEKEAVTLGIKALKSSLEEGEELKAPEIASITVGNKYRIYDQEEVKKFL” here?
**A.** The value was “not soluble”.

**Q.** With “MSLTLTLKETLLASPGVLFLDDITIEKVESEKNLMILLPGLEYLVTRDLLRTKFPEYDFTGPENVRITVEGYSSLKNAVFEEIGKKAEAKDFEAFVVKTFGTLPEKFEPQTIRVTKISKNLFSVFLRFPDTYVTLNMLLRKERNVVVLKRNINVGDVIKEEDVRLEKRNVFEIYGEPFFDVSEVVGKISRRYLKEGTVLTADMVKDPPDVVKGQVVPAYVDMGSIKVTTFVEVLENGYLGETVRAMNVESRKYVFGRVERGPVLRILEVVEGHHHHHH” as the sequence, how does the “soluble on expression in E. coli” value read?
**A.** The value was “soluble”.

**Q.** For “EVIAAYIEGIKKAAENGLNVSQIHSVASFFVSRLDTEVDKRLEQIGSDEALSLRGKAGVANAQRAYAVFLEAFQAADLPVGAHVQRPLWASTGVKNPDYSPTFYVSELAGPDTVNTMPESTIDAVLAADDIHGDTLSSSSDSANEIFTRISQTGIDFEDVFAVLEQEGVDKFVAAWSDLLDSMESRLK”, which “soluble on expression in E. coli” value is on record?
**A.** Its value is “not soluble”.

**Q.** For “MGSDKIHHHHHHMGPYRFVNREFLIITYRTDMDRLREIVPEPLEVKEPLVHYEFIRMPDSTGFGDYTESGQVIPVEYKGQPGGYTLAMYLNDHPPIAGGRELWGFPKKLAQPTLQTHIDTLLGTLDYGPVRVATGTMGYKHQELDLEEQAKRLAGANFLLKIIPHVDGSARVCELVRYYLQDIEMKGAWTGPASLQLAPHALAPVADLPVLEIVEARHLLADLTLGLGEVVYDYLAQ”, which “soluble on expression in E. coli” value is on record?
**A.** Its value is “not soluble”.

**Q.** Which “soluble on expression in E. coli” value does the source give for “MGVEKTIVGIAGKIAAGKTTVAKFLEELGFCRISCSEPLLDILTGNVSEYSWVPEVNFKGEPTRENLIELGRLLKEKYGEDILIRLAIDKLRRCKNIAIDGVRSLGEVEAIKRMGGIIIYIEARAEVRFERLRKRCSEKDRGIKTLQDLLRFDEWEERLYSTTNIKEKADFVILNEGSLEELKKKVREILREHSN” here?
**A.** Its value is “not soluble”.

**Q.** Which “soluble on expression in E. coli” value does the source give for “MKTIRYALKKEKEMMKKFIAPLLALLVSGCQIDPYTHAPTLTSTDWYDVGMEDAISGSAIKDDDAFSDSQADRGLYLKGYAEGQKKTCQTDFTYARGLSGKSFPASCNNVENASQLHEVWQKGADENASAIRLN” here?
**A.** The value was “not soluble”.

**Q.** Which “soluble on expression in E. coli” value does the source give for “MHHHHHHSSGRENLYFQGSTRGKVVLHTSLGDLDVELWARECPLACRNFVQLCLEGYYVNTIFHRVVKDFIVQGGDPTGTGRGGADTTFDGKPFDVETHPRLKFRYRGLVGVANLGRSSKDAENDERGRSLGTNGNQFFITLARADVLNNAYTLFGKVTGHTLYNLMKFNDLEVGKEDRPMTPPFIKSVDVLWNPFEDLVPRRLPDAPPAQKDERKRARAAGGRTTEGRARS” here?
**A.** Its value is “soluble”.

**Q.** With “SAAPPGEYFSVGSQVSCRTCQEQRLQGEVVAFDYQSKMLALKCPSSSGKPNHADILLINLQYVSEVEIINDRTETPRPLASLNVSKLASKARTEKEEKLSQAYAISAGVSLEGQQLFQTIHKTIKDCKWQEKNIVVMEEVVITPPYQVENCKGKEGSALSHVRKIVEKHFRDVESQKILQRSQAQQPQKEAALSS” as the sequence, how does the “soluble on expression in E. coli” value read?
**A.** The value was “soluble”.

**Q.** With “MAKAAAGKKASPVKRVKKGGKAKDPNAPKRAMSAFFFWMQENRERIKKPGMGVADVAKAAGVEWGKLTDKSRWEKKAADDKKRYEVDIANYKKSQ” as the sequence, how does the “soluble on expression in E. coli” value read?
**A.** Its value is “soluble”.

**Q.** With “GPGSMDDKQAFFVRCIDGKTFKMVIRGDLGKLTVGKIRRYLKSYGVQDGMQLLFNGLSLADEQVGSDFGLCNGATLHLGPPSFSEPAVPQRTHGQGFSDEAAGSRTGDPTDTPHSSLSGDSRERNSKADSTHRDPCGGLSHADPARGTATYSGGRYNVDKGIPVTATSATKTNIDRIPSADLTSHSGFPVALEVENQQLREQVELLRREVADLRQKNKAPRATVLRQDLTSIEVLQSAKSNLQELAEELGVPLQFDTNFTCVVGDDESHTVLVTFDCVTERLYIYSTLLTQIPHDGEVRAKLYELLLEGSLLSREVCGGGIGISPQNGLVLLSTTIPLRHCNSSALKDIMPVFVETVARWRSLINELLN” as the sequence, how does the “soluble on expression in E. coli” value read?
**A.** Its value is “soluble”.

**Q.** For “MGSDKIHHHHHHMSEAINHGIIKSYVDGLTTSTLLMPNLPTAEHAVALAKNYPGLFVGQHTNFLLGKPCADPCMIPSLVDEQGNFHRSSYYRQQKQVTFVYEEVRLETIAQLTRFKELTGHYPEHFDCHSIGDEVVDQVFLELAEEYGLHTTLKYSGEKEYPPQQGYFQVTHLLESGALSYIHEGVSVENFLEDDFGLLRMPESAIAEMHFDVGYLDQFVLDNSSYTTLRCKELATICDPRVRQWFEEQGIERITFGDLKK”, which “soluble on expression in E. coli” value is on record?
**A.** The value was “not soluble”.

**Q.** With “MGSDKIHHHHHHMITNQKLKKSLEEIKNITSFDAILYSAKGKHLTGTVEEPEHSDIFVKEFIVSEEDVREKNDAIAFAVEIDSELEYVLVMFCPYTSENLVIGRMAVCQLRTLVLGESERYDRNNFIQNILLGNMLGSDIINRAKKLHIENRKRVVYVIDTGKNSNEIAVELAKNLADIRSGDFVVAMDEHNVVLVKDVEDIDSPKLQEKLSSIAGSLVDNLLAEAMIKVRVGYGNPTDVLPKITESYQEAKMALEVGRLFYVEKEIMAYDRLGIGRLIYQLPMSLCEMFIREVFGDEVPQILDDEEAMSTISKFFENNLNISETARQLYVHRNTLVYRLERIEKSIGLDIRTFDDAMIFKIATMVLAHIKDSRQGR” as the sequence, how does the “soluble on expression in E. coli” value read?
**A.** Its value is “not soluble”.

**Q.** Which “soluble on expression in E. coli” value does the source give for “MSLRPTEYIDLHCHLLPGLDDGPQQLAQAVEMARQAVADGIHYVLATPHHLDRRYQNTGLVVERSVAELQAELKRQQIPLTVFAGQEVHLRDDLATALPHLLGIDVGRRYLLLELPHEQVPNYVAQVIFELLQQGTTPVIAHPERNAQIMAQPERLYDLVQQGCLAQLTAGSLVGQFGRAVKSTALELVECGLVQVIASDAHLMARRGFMMRAGYQALARLDSTNPASFAVNARLLLNGDPVVLGEVLRPNQRRKFWLFEGHHHHHH” here?
**A.** Its value is “not soluble”.

**Q.** With “SKLSPIIMIPGSSATENRFDGLVRKLNQDRRGTKHSLLKVKVWNNGRITFEGKIRKNDNEPIIVIGFENNKDGYSNIKKQAKMMNQAFEALQNKYNFNNFKGLAHSNGGLIYTAFIENDLSDYDVKINSLMTIGTPYNFTETNIKNKSVMLADFIAAKENIPSTLHVYSVAGTITYDSDELVPDASVSAGKYIYQNQAKSYTEITVTGEDAQHSDLPTNDEVVDLIKQHIEGQGLRKKQKTKLEPQ” as the sequence, how does the “soluble on expression in E. coli” value read?
**A.** Its value is “not soluble”.

**Q.** For “MAHHHHHHMDQFIRSRTDWKERVVFRLVWITASRWFGISGLHSQQFYTGAGRDPNLGLARGAEDGEGGSPPRLSVRQDTRAGGCVRHYKVMQDTSTQRKAHESYDCPLGASSGLLECHGAFHKTRCVEARCSNRGGVQFGPTRDPAVGEARRPVRPSPEYCLIFGEIHHNADPGVVASRIDVKRETAEGQ”, which “soluble on expression in E. coli” value is on record?
**A.** The value was “not soluble”.

**Q.** With “MPFRPQVIIGELMKTFGTNTNALPMSREETKTVEKFTRILKDAETDDLLIQSDDEEEVFGGIVDEEDWKPDDDDPSACVVPDKVNFSSGAAIDVAMVHSAVEFMTDVRTKKLRSFASMQRRYRFIKTQHDMQKLRVFAKNNEIQCSRVSQFSTLSGLLRTKVFEAIDDRISIDKFTLRRLAVQLNDEHVHIEGFQASDGWLKKWKKTNGLVSRHVTTFITRANYVNKELTEQAAKKFVEEVKAELATLDPDVVYNCDQSGFTKEQYCKRTLAPKGVKRVERLVQSKDALTHSYTILPMLSASGKLAPKLYVVLQEKGGKFPKKGHFSPDNLIIRANTSHIMNKQLMVDWVESAVCDPSMPTEVVLLLDAWPAWKNEGDVQAAALSGNTVHVRSIPPGATSFIQPCDLYFFCPLKNFVKKVNAYIIYSGITFKTSERDNLLRVISAVYRVFRAPIFQSCWKYGWIQGGYIDDQHVKVETPSKFCFKVSGYCSQKKTRDTMCQDTAFLLCPYCKKVLCFNHWVGCGFPAHKCKC” as the sequence, how does the “soluble on expression in E. coli” value read?
**A.** The value was “not soluble”.

**Q.** With “MIVNEINSSEEVLQIEQIDVEGQRAEYNRIQQERQDYQYAMRFAVHVDQVAVQALPIPAQSPEHLVAEHSNAQVPVDARPNPPTQSPAPRAAPDHGPVQAPRNLAQALNLPRRARGRPRRSDVRRTRDAQDSVATQQGPNAEQSGILVPPASRQQPEHSATSTISAPLSPASSTNMALQNAPSDHGDQLIRDSSEDRQNVPAPRRSARIASHTQYRTSPYVSARQGHRLAIARGRAAPGTLDPSASRQSIPSTSDAPVLVPHAPPAPPSPTLQDCVICMEEPVNPKVCPKCLKMIGCAKCFRWWTVFRCWWQSSLNPSCPLCRLKWDSAPKVIAAKKFYDGK” as the sequence, how does the “soluble on expression in E. coli” value read?
**A.** The value was “not soluble”.

**Q.** With “MSLIAHSNEIARPIFKSQDQLFTLYQGDCNEVLPQFENQFDLIFADPPYFLSNDGLSIQSGKIVSVNKGDWDKEDGINGIDEFNYQWINNAKKALKDTGSLLISGTYHNIFSLGCVLQKLDFKILNLITWQKTNPPPNFSCRYLTHSAEQIIWARKSRKHKHVFNYEVLKKINNDKQMRDVWSFPAIAPWEKVNGKHPTQKPLALLVRLLLMASDENSLIGDPFSGSSTTGIAANLLKREFIGIEKESEFIKISMDRKIELDARYKEIRSKIKDLNHQEGHHHHHH” as the sequence, how does the “soluble on expression in E. coli” value read?
**A.** The value was “not soluble”.

**Q.** With “MAAQRLGKRVLSKLQSPSRARGPGGSPGGLQKRHARVTVKYDRRELQRRLDVEKWIDGRLEELYRGMEADMPDEINIDELLELESEEERSRKIQGLLKSCGKPVEDFIQELLAKLQGLHRQPGLRQPSPSHDGSLSPLQDRARTAHP” as the sequence, how does the “soluble on expression in E. coli” value read?
**A.** Its value is “soluble”.

**Q.** With “MYQQSSFKENLIHWFDENQREMPWRQTTNPYYIWLSEVMLQQTQVKTVIDYYHRFVERFPTVEVLSQASEDEVLKYWEGLGYYSRARNFHTAIKEVHDKYEGLVPKDPDQFKALKGVGPYTQAAVMSIAYNVPLATVDGNVFRVWSRLNDDYRDIKLQSTRKSYEQELLPYVTTEAGTFNQAMMELGALICTPKNPLCLFCPVQENCEAFDKGTFEKLPVKSKNVSKKVIEQSVFLIRNNQGQYLLQKRSEKLLHGMWQFPMFESEHARRKMTEKIGHDIQPVETPIFELKHQFTHLTWKIKVYAVSGAINIETLPDDMIWFDLSDRDQYTFPVPMSKIYQFING” as the sequence, how does the “soluble on expression in E. coli” value read?
**A.** The value was “not soluble”.

**Q.** Which “soluble on expression in E. coli” value does the source give for “MTEKLKNSKEVIAYIAECFPKCFTLEGEAKPLKIGIFQDLAERLNEDEKVSKTQLRAALRQYTSSWRYLHGVKPGAVRVDLDGNPCGELEEEHVEHAKATLAESKAKVQARRKEQAQKAREEGKAKAKPAANKKPQQPRRTNKPKVQKPTK” here?
**A.** The value was “not soluble”.
